Results taken from IntAct's records for PubMed 15117939.

B1: Mannan-binding lectin serine protease 2 (Homo sapiens), O00187-2 (parent)
chain: MRLLTLLGLLCGSVATPLGPKWPEPVFGRLASPGFPGEYANDQERRWTLTAPPGYRLRLYFTHFDLELSHLCEYDFVKLSSGAKVLATLCGQESTDTERAPGKDTFYSLGSSLDITFRSDYSNEKPFTGFEAFYAAEDIDECQVAPGEAPTCDHHCHNHLGGFYCSCRAGYVLHRNKRTCSEQSL

What was measured:
mbl2_human MBL2, P11226 = variants of: B1; details: with mbl2_human MBL2, P11226
fcn2_human FCN2, Q15485 = variants of: B1; details: with fcn2_human FCN2, Q15485
Chain of fcn2_human FCN2, Q15485 (Q15485 whole entry): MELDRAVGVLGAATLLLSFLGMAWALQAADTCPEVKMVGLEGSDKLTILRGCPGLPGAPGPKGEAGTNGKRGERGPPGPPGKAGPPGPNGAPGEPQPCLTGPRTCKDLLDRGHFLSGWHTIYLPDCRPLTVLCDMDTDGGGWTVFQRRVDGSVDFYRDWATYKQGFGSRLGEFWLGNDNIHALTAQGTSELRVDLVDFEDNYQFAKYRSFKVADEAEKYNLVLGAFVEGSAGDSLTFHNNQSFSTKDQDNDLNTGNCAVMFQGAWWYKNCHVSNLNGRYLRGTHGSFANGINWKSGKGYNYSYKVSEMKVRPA

Chain of mbl2_human MBL2, P11226 (P11226 whole entry): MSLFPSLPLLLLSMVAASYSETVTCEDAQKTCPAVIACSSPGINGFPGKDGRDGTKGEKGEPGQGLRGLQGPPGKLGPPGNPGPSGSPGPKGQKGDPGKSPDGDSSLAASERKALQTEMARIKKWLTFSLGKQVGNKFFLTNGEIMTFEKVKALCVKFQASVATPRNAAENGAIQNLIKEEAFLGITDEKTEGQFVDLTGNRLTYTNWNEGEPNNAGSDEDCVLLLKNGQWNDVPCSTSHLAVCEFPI

Variant	effect of a mutation on the interaction (mbl2_human MBL2, P11226)	effect of a mutation on the interaction (fcn2_human FCN2, Q15485)
E98A	decreasing interaction strength	decreasing interaction strength
E73A	with no effect	with no effect
E93Q	with no effect	with no effect
D75A	decreasing interaction strength	decreasing interaction strength
D120G	disrupting interaction strength	disrupting interaction strength
H70A	with no effect	with no effect
D96N	with no effect	with no effect
E124A	decreasing interaction strength	with no effect
Y121A	disrupting interaction strength	disrupting interaction strength
E148A	decreasing interaction strength	decreasing interaction strength
R56A	with no effect	with no effect
Y74A	disrupting interaction strength	disrupting interaction strength
